This is an account of results in patent publication US20170349638A1 (published 2017).

The target in one experiment is SP-44. The experiment is described as follows: Affinity selection MS.
In the next experiment the target is SP-5. The experiment is described as follows: Affinity selection MS.
A further experiment concerns the target T1, GST-HDMX (human (HDMX), UniProt O15151 1-134).
T1 chain: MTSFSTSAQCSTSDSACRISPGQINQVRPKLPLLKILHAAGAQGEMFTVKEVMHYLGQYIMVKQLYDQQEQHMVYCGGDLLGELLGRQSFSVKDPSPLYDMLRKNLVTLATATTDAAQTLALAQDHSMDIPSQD
The experiment is described as follows: Competition ELISA.

Where no end group is shown, it is not given here.

B1: GST-hDMX (other)
chain: MTSFSTSAQCSTSDSACRISPGQINQVRPKLPLLKILHAAGAQGEMFTVKEVMHYLGQYIMVKQLYDQQEQHMVYCGGDLLGELLGRQSFSVKDPSPLYDMLRKNLVTLATATTDAAQTLALAQDHSMDIPSQD
With B1, the dissociation constant Kd with SP-44 stood at 0.18 µM; in the experiment with SP-5, 0.09 µM.

B2: GST-hDM2 (other)
chain: MCNTNMSVPTDGAVTTSQIPASEQETLVRPKPLLLKLLKSVGAQKDTYTMKEVLFYLGQYIMTKRLYDEKQQHIVYCSNDLLGDLFGVPSFSVKEHRKIYTMIYRNLVVVNQQESSDSGTSVSENRCHLEGGSDQKDL
Consider B2, for which the dissociation constant Kd with SP-44 and with SP-5 was 0.025 µM in each case. QSQQTFANLWRLLAQN (not fully specified (residues 7, 14, N-terminus, C-terminus, bridges)) [peptide 46 (Table 9), Ac-QSQQTF%r8NLWRLL%QN-NH2] returned an IC50 with GST-HDMX of 0.175 µM.
